For orientation: Kd means the equilibrium constant for the complex coming apart.

Drawing on paper PMC4197010 (Journal of controlled release : official journal of the …, 2014), this text covers Kd for one molecule.

Like-named read-outs stand apart in the source and are kept apart here.

In assay [1] the target is T1, chimera leptin receptor (ObR-Fc) (UniProt P48356 22-839).
T1 sequence (looked up): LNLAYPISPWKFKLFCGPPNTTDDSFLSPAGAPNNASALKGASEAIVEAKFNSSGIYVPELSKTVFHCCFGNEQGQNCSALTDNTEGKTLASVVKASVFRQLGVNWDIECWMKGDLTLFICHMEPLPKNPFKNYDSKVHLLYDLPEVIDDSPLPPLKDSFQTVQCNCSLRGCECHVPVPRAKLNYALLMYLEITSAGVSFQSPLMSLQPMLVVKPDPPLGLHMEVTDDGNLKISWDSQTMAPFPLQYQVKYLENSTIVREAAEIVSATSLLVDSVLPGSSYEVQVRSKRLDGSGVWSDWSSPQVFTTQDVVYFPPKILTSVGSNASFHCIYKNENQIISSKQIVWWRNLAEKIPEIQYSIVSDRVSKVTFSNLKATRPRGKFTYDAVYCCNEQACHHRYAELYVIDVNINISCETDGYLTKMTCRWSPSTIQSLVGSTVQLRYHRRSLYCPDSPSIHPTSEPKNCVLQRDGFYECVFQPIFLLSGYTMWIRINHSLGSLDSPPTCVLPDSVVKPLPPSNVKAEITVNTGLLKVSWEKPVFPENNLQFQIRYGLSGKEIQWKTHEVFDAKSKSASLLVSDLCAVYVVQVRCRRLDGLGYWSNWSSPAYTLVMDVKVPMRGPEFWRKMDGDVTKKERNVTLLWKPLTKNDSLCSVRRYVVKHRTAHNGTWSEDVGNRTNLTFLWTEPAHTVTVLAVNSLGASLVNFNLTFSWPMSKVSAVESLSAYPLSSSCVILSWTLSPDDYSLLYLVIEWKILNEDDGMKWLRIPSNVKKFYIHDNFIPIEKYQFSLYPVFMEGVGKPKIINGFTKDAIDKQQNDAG
The experiment in a line: SPR. On the technique in general: In SPR one partner is held on a chip, and binding of the other changes the refractive index at the surface.

Assay [2] addresses T1, chimera leptin receptor (ObR-Fc). The experiment in a line: SPR. The source holds these as a separate data set.

B1: Mouse recombinant leptin (ligand, UniProt P41160 22-167, looked up)
chain: VPIQKVQDDTKTLIKTIVTRINDISHTQSVSAKQRVTGLDFIPGLHPILSLSKMDQTLAVYQQVLTSLPSQNVLQIANDLENLRDLLHLLAFSKSCSLPQTSGLQKPESLDGVLEASLYSTEVVALSRLQGSLQDILQQLDVSPEC
Take B1: the Kd in assay [1] came to 0.1 nM; in assay [2], 0.337 nM.
